Source: article PMC12086504 (Traffic (Copenhagen, Denmark), 2025)

T1: BicD^CC2‐CC3 (amino acids 318–782) (Drosophila, UniProt P16568 318-782, biotin on the biotin tag)
T1 sequence (looked up): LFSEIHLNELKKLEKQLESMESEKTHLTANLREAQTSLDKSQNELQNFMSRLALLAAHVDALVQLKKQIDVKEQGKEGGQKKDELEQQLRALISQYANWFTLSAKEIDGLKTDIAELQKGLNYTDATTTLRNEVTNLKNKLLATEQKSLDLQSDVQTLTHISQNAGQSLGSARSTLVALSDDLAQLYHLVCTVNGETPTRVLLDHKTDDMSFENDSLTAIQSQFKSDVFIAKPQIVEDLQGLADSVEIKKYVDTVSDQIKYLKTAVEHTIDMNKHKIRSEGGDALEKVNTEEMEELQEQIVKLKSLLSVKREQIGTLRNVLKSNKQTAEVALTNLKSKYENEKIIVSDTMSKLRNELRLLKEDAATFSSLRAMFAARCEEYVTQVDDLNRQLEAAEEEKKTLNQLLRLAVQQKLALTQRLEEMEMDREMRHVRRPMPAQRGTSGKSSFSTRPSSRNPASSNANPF


Tests used:
[1] = target: T1, BicD^CC2‐CC3 (amino acids 318–782); assay: interferometric scattering mass spectrometry
[2] = target: T1, BicD^CC2‐CC3 (amino acids 318–782); assay: single-molecule TIRF microscopy

| stoichiometry N [1] | percent of Qdots in complexes with BicD^CC2-CC3 [2] | Binder |
| --- | --- | --- |
|  | 6.6% | kinesin^ΔH2 with added kinesin light chain (KLC) (complex, biotin on the biotin tag) heavy: MSAEREIPAEDSIKVVCRFRPLNDSEEKAGSKFVVKFPNNVEENCISIAGKVYLFDKVFKPNASQEKVYNEAAKSIVTDVLAGYNGTIFAYGQTSSGKTHTMEGVIGDSVKQGIIPRIVNDIFNHIYAMEVNLEFHIKVSYYEIYMDKIRDLLDVSKVNLSVHEDKNRVPYVKGATERFVSSPEDVFEVIEEGKSNRHIAVTNMNEHSSRSHSVFLINVKQENLENQKKLSGKLYLVDLAGSEKVSKTGAEGTVLDEAKNINKSLSALGNVISALADGNKTHIPYRDSKLTRILQESLGGNARTTIVICCSPASFNESETKSTLDFGRRAKTVKNVVCVNEELTAEEWKRRYEKEKEKNARLKGKVEKLEIELARWRAGETVKAEEQINMEDLMEASTPNLEVEAAQTAAAEAALAAQRTALANMSASVAVNEQARLATECERLYQQLDDKDEEINQQSQYAEQLKEQVMEQEELIANARREYETLQSEMARIQQENESAKEEVKEVLQALEELAVNYDQSNKKISEYEKDLGEYRLLISQHEARMKSLQESMREAENKKRTLEEQIDSLREECAKLKAAEHVSAVNAEEKQRAEELRSMFDSQMDELREAHTRQVSELRDEIAAKQHEMDEMKDVHQKLLLAHQQMTADYEKVRQEDAEKSSELQNIILTNERREQARKDLKGLEDTVAKELQTLHNLRKLFVQDLQQRIRKNVVNEESEEDGGSLAQKQKISFLENNLDQLTKVHKQLVRDNADLRCELPKLEKRLRCTMERVKALETALKEAKEGAMRDRKRYQYEVDRIKEAVRQKHLGRRGPQAQIAKPIRSGQGAIAIRGGGAVGGPSPLAQVNPVNS light: MTQMSQDEIITNTKTVLQGLEALRVEHVSIMNGIAEVQKDNEKSDMLRKNIENIELGLSEAQVMMALTSHLQNIEAEKHKLKTQVRRLHQENAWLRDELANTQQKFQASEQLVAQLEEEKKHLEFMASVKKYDENQEQDDACDKSRTDPVVELFPDEENEDRHNMSPTPPSQFANQTSGYEIPARLRTLHNLVIQYASQGRYEVAVPLCKQALEDLERTSGHDHPDVATMLNILALVYRDQNKYKEAANLLNDALSIRGKTLGENHPAVAATLNNLAVLYGKRGKYKDAEPLCKRALEIREKVLGKDHPDVAKQLNNLALLCQNQGKYDEVEKYYQRALDIYESKLGPDDPNVAKTKNNLAGCYLKQGRYTEAEILYKQVLTRAHEREFGAIDSKNKPIWQVAEEREEHKFDNRENTPYGEYGGWHKAAKVDSPTVTTTLKNLGALYRRQGMFEAAETLEDCAMRSKKEAYDLAKQTKLSQLLTSNEKRRSKAIKEDLDFSEEKNAKP |
|  | 16.4% | homodimeric Drosophila kinesin‐1 (kinesin heavy chain, no bound light chains) (natural protein, Drosophila melanogaster, UniProt P17210 1-975, looked up, biotin on the biotin tag (biotinylation occurs during expression in Sf9 cells)) MSAEREIPAEDSIKVVCRFRPLNDSEEKAGSKFVVKFPNNVEENCISIAGKVYLFDKVFKPNASQEKVYNEAAKSIVTDVLAGYNGTIFAYGQTSSGKTHTMEGVIGDSVKQGIIPRIVNDIFNHIYAMEVNLEFHIKVSYYEIYMDKIRDLLDVSKVNLSVHEDKNRVPYVKGATERFVSSPEDVFEVIEEGKSNRHIAVTNMNEHSSRSHSVFLINVKQENLENQKKLSGKLYLVDLAGSEKVSKTGAEGTVLDEAKNINKSLSALGNVISALADGNKTHIPYRDSKLTRILQESLGGNARTTIVICCSPASFNESETKSTLDFGRRAKTVKNVVCVNEELTAEEWKRRYEKEKEKNARLKGKVEKLEIELARWRAGETVKAEEQINMEDLMEASTPNLEVEAAQTAAAEAALAAQRTALANMSASVAVNEQARLATECERLYQQLDDKDEEINQQSQYAEQLKEQVMEQEELIANARREYETLQSEMARIQQENESAKEEVKEVLQALEELAVNYDQKSQEIDNKNKDIDALNEELQQKQSVFNAASTELQQLKDMSSHQKKRITEMLTNLLRDLGEVGQAIAPGESSIDLKMSALAGTDASKVEEDFTMARLFISKMKTEAKNIAQRCSNMETQQADSNKKISEYEKDLGEYRLLISQHEARMKSLQESMREAENKKRTLEEQIDSLREECAKLKAAEHVSAVNAEEKQRAEELRSMFDSQMDELREAHTRQVSELRDEIAAKQHEMDEMKDVHQKLLLAHQQMTADYEKVRQEDAEKSSELQNIILTNERREQARKDLKGLEDTVAKELQTLHNLRKLFVQDLQQRIRKNVVNEESEEDGGSLAQKQKISFLENNLDQLTKVHKQLVRDNADLRCELPKLEKRLRCTMERVKALETALKEAKEGAMRDRKRYQYEVDRIKEAVRQKHLGRRGPQAQIAKPIRSGQGAIAIRGGGAVGGPSPLAQVNPVNS |

The remaining lines, values behind:

| Binder | stoichiometry N [1] | percent of Qdots in complexes with BicD^CC2-CC3 [2] |
| --- | --- | --- |
| Drosophila kinesin^ΔH2 (kinesin heavy chain lacking the hinge 2 region, amino acids K521‐D641) (natural protein, Drosophila melanogaster, UniProt P17210 1-975, looked up, biotin on the biotin tag) MSAEREIPAEDSIKVVCRFRPLNDSEEKAGSKFVVKFPNNVEENCISIAGKVYLFDKVFKPNASQEKVYNEAAKSIVTDVLAGYNGTIFAYGQTSSGKTHTMEGVIGDSVKQGIIPRIVNDIFNHIYAMEVNLEFHIKVSYYEIYMDKIRDLLDVSKVNLSVHEDKNRVPYVKGATERFVSSPEDVFEVIEEGKSNRHIAVTNMNEHSSRSHSVFLINVKQENLENQKKLSGKLYLVDLAGSEKVSKTGAEGTVLDEAKNINKSLSALGNVISALADGNKTHIPYRDSKLTRILQESLGGNARTTIVICCSPASFNESETKSTLDFGRRAKTVKNVVCVNEELTAEEWKRRYEKEKEKNARLKGKVEKLEIELARWRAGETVKAEEQINMEDLMEASTPNLEVEAAQTAAAEAALAAQRTALANMSASVAVNEQARLATECERLYQQLDDKDEEINQQSQYAEQLKEQVMEQEELIANARREYETLQSEMARIQQENESAKEEVKEVLQALEELAVNYDQSNKKISEYEKDLGEYRLLISQHEARMKSLQESMREAENKKRTLEEQIDSLREECAKLKAAEHVSAVNAEEKQRAEELRSMFDSQMDELREAHTRQVSELRDEIAAKQHEMDEMKDVHQKLLLAHQQMTADYEKVRQEDAEKSSELQNIILTNERREQARKDLKGLEDTVAKELQTLHNLRKLFVQDLQQRIRKNVVNEESEEDGGSLAQKQKISFLENNLDQLTKVHKQLVRDNADLRCELPKLEKRLRCTMERVKALETALKEAKEGAMRDRKRYQYEVDRIKEAVRQKHLGRRGPQAQIAKPIRSGQGAIAIRGGGAVGGPSPLAQVNPVNS | 2 kinesins per BicD^CC2-CC3 | 21.3% |
| heterotetrameric kinesin^KLC (kinesin heavy chain with bound kinesin light chains) (complex, biotin on the biotin tag) heavy: MSAEREIPAEDSIKVVCRFRPLNDSEEKAGSKFVVKFPNNVEENCISIAGKVYLFDKVFKPNASQEKVYNEAAKSIVTDVLAGYNGTIFAYGQTSSGKTHTMEGVIGDSVKQGIIPRIVNDIFNHIYAMEVNLEFHIKVSYYEIYMDKIRDLLDVSKVNLSVHEDKNRVPYVKGATERFVSSPEDVFEVIEEGKSNRHIAVTNMNEHSSRSHSVFLINVKQENLENQKKLSGKLYLVDLAGSEKVSKTGAEGTVLDEAKNINKSLSALGNVISALADGNKTHIPYRDSKLTRILQESLGGNARTTIVICCSPASFNESETKSTLDFGRRAKTVKNVVCVNEELTAEEWKRRYEKEKEKNARLKGKVEKLEIELARWRAGETVKAEEQINMEDLMEASTPNLEVEAAQTAAAEAALAAQRTALANMSASVAVNEQARLATECERLYQQLDDKDEEINQQSQYAEQLKEQVMEQEELIANARREYETLQSEMARIQQENESAKEEVKEVLQALEELAVNYDQKSQEIDNKNKDIDALNEELQQKQSVFNAASTELQQLKDMSSHQKKRITEMLTNLLRDLGEVGQAIAPGESSIDLKMSALAGTDASKVEEDFTMARLFISKMKTEAKNIAQRCSNMETQQADSNKKISEYEKDLGEYRLLISQHEARMKSLQESMREAENKKRTLEEQIDSLREECAKLKAAEHVSAVNAEEKQRAEELRSMFDSQMDELREAHTRQVSELRDEIAAKQHEMDEMKDVHQKLLLAHQQMTADYEKVRQEDAEKSSELQNIILTNERREQARKDLKGLEDTVAKELQTLHNLRKLFVQDLQQRIRKNVVNEESEEDGGSLAQKQKISFLENNLDQLTKVHKQLVRDNADLRCELPKLEKRLRCTMERVKALETALKEAKEGAMRDRKRYQYEVDRIKEAVRQKHLGRRGPQAQIAKPIRSGQGAIAIRGGGAVGGPSPLAQVNPVNS light: MTQMSQDEIITNTKTVLQGLEALRVEHVSIMNGIAEVQKDNEKSDMLRKNIENIELGLSEAQVMMALTSHLQNIEAEKHKLKTQVRRLHQENAWLRDELANTQQKFQASEQLVAQLEEEKKHLEFMASVKKYDENQEQDDACDKSRTDPVVELFPDEENEDRHNMSPTPPSQFANQTSGYEIPARLRTLHNLVIQYASQGRYEVAVPLCKQALEDLERTSGHDHPDVATMLNILALVYRDQNKYKEAANLLNDALSIRGKTLGENHPAVAATLNNLAVLYGKRGKYKDAEPLCKRALEIREKVLGKDHPDVAKQLNNLALLCQNQGKYDEVEKYYQRALDIYESKLGPDDPNVAKTKNNLAGCYLKQGRYTEAEILYKQVLTRAHEREFGAIDSKNKPIWQVAEEREEHKFDNRENTPYGEYGGWHKAAKVDSPTVTTTLKNLGALYRRQGMFEAAETLEDCAMRSKKEAYDLAKQTKLSQLLTSNEKRRSKAIKEDLDFSEEKNAKP |  | 3.7% |
